Measured values published in publication PMC11048174.

Key:
[1] = target: Avidin (obtained from egg white) (UniProt P02701); test: SPR; MWCNT-Av deposited on a gold disk; 0.50 mg mL^-1 bLOx or LOx injected manually, batch conditions, 25 °C; amount from the change of the resonance angle after washing with phosphate buffer
[2] = target: Avidin (obtained from egg white) (UniProt P02701); test: electrochemical impedance spectroscopy; MWCNT-Av on glassy carbon electrode, incubated with bLOx or LOx; charge transfer resistance of hydroquinone/benzoquinone at 0.050 V, 0.050 M phosphate buffer pH 7.40

UniProt P02701, sequence (P02701 25-152): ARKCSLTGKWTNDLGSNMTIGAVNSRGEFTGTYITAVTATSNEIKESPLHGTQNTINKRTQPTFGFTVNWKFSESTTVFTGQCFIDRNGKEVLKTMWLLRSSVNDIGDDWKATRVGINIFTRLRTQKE

recombinant biotinylated lactate oxidase (enzyme)
amount immobilised (from the SPR angle change) [1]: 2600 pg mm^−2
RCT (charge transfer resistance) after interaction [2]: 200 Ω
